Experimental data from patent publication US20250320281A1.

Assays:
[1] = target: JR-FL gp120 ΔV1/ΔV2 (HIV-1); test: ELISA, antigen-coated wells
[2] = target: HIV-1 Env of isolate PVO.4 (subtype B pseudovirus) (HIV-1); test: cell-based or functional assay
[3] = target: HIV-1 94UG103 Env (pseudovirus, clade A) (HIV-1); test: cell-based or functional assay
[4] = target: HIV-1 Env of isolate MGRM-AE-005 (HIV-1); test: cell-based or functional assay
[5] = target: HIV-1 Env of isolate 6535.3 (subtype B pseudovirus) (HIV-1); test: cell-based or functional assay
[6] = target: HIV-1 Env of isolate MGRM-Chronic-B-018 (subtype B pseudovirus) (HIV-1); test: cell-based or functional assay
[7] = target: HIV-1 Env of isolate MGRM-F1-008 (pseudovirus) (HIV-1); test: cell-based or functional assay
[8] = target: HIV-1 Env of isolate MGRM-AG-012 (HIV-1); test: cell-based or functional assay
[9] = target: HIV-1 Env of isolate CAAN.A2 (subtype B pseudovirus) (HIV-1); test: cell-based or functional assay
[10] = target: HIV-1 Env of isolate MGRM-D-019 (pseudovirus) (HIV-1); test: cell-based or functional assay
[11] = target: HIV-1 Env of pseudovirus isolate MGRM-G-028 (HIV-1); test: cell-based or functional assay
[12] = target: HIV-1 92TH021 envelope glycoprotein (Env) on pseudovirus (HIV-1); test: cell-based or functional assay
[13] = target: HIV-1 92BR020 envelope glycoprotein (Env) on pseudovirus (HIV-1); test: cell-based or functional assay
[14] = target: HIV-1 Env of isolate MGRM-F1-012 (pseudovirus) (HIV-1); test: cell-based or functional assay
[15] = target: HIV-1 Env of isolate MGRM-F1-010 (pseudovirus) (HIV-1); test: cell-based or functional assay
[16] = target: HIV-1 Env of isolate MGRM-D-021 (pseudovirus) (HIV-1); test: cell-based or functional assay
[17] = target: HIV-1 Env of isolate 93IN905 (subtype C pseudovirus) (HIV-1); test: cell-based or functional assay
[18] = target: HIV-1 Env of isolate MG RM-D-004 (HIV-1); test: cell-based or functional assay
[19] = target: HIV-1 Env of isolate MGRM-Chronic-B-001 (subtype B) (HIV-1); test: cell-based or functional assay
[20] = target: HIV-1 Env of isolate MG RM-D-018 (HIV-1); test: cell-based or functional assay
[21] = target: HIV-1 Env of isolate 92TH021 (pseudovirus) (HIV-1); test: cell-based or functional assay
[22] = target: HIV-1 Env of isolate MGRM-Chronic-B-004 (subtype B) (HIV-1); test: cell-based or functional assay
[23] = target: HIV-1 Env of isolate APV-13 (HIV-1); test: cell-based or functional assay
[24] = target: HIV-1 Env of isolate MGRM-AE-004 (subtype AE) (HIV-1); test: cell-based or functional assay
[25] = target: HIV-1 Env of isolate TRO.11 (subtype B) (HIV-1); test: cell-based or functional assay
[26] = target: HIV-1 envelope glycoprotein (Env) of isolate MGRM-C-014 (HIV-1); test: cell-based or functional assay
[27] = target: HIV-1 envelope glycoprotein (Env) of isolate MGRM-C-010 (HIV-1); test: cell-based or functional assay
[28] = target: HIV-1 Env of isolate MGRM-AG-009 (subtype AG) (HIV-1); test: cell-based or functional assay

5345_I01 (PGT-137) (antibody), sequence (VH): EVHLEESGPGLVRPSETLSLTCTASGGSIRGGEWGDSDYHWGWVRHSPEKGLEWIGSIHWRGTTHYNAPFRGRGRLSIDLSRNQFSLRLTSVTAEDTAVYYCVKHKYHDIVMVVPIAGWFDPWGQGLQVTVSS
5345_I01 (PGT-137) (antibody), sequence (VL): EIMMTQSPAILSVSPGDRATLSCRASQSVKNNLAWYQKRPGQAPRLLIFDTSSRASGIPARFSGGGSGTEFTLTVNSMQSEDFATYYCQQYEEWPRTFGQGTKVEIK
5329_C19 (PGT-136) (antibody), sequence (VH): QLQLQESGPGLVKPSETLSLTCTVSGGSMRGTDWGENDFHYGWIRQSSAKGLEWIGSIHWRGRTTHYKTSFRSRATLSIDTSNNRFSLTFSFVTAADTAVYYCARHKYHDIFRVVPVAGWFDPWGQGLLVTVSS
5329_C19 (PGT-136) (antibody), sequence (VL): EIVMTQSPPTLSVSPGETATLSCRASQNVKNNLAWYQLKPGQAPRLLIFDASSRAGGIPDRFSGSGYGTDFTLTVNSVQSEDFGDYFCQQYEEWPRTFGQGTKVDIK

Row | Substance | EC50 [1] [µg/mL] | IC50 (µg/mL), pseudovirus neutralization [2] [µg/mL] | IC50 neutralization [3] [µg/mL] | IC50 [4] [µg/mL] | IC50 (µg/mL), pseudovirus neutralization [5] [µg/mL] | IC50 (µg/mL), pseudovirus neutralization [6] [µg/mL] | IC50, pseudovirus neutralization [7] [µg/mL] | IC50 [8] [µg/mL] | IC50 (µg/mL), pseudovirus neutralization [11] [µg/mL] | IC50 (µg/mL), pseudovirus neutralization [18] [µg/mL] | IC50 neutralization [19] [µg/mL] | IC50 (µg/mL), pseudovirus neutralization [20] [µg/mL] | Primary Neutralization Index (B cell culture supernatant) [21] | IC50 neutralization [22] [µg/mL] | neutralization IC50 [23] [µg/mL] | IC50 (µg/mL), pseudovirus neutralization [24] [µg/mL] | IC50 neutralization [25] [µg/mL] | IC50 (µg/mL), pseudovirus neutralization [26] [µg/mL] | IC50 (µg/mL), pseudovirus neutralization [27] [µg/mL] | IC50 (µg/mL), pseudovirus neutralization [28] [µg/mL] | further results
1 | 4858_P08 (PGT-123) (antibody) | 0.3 | 0.105 | 0.846 | > 50 | 0.004 | > 50 | > 50 | > 50 | 0.008 | – | – | – | – | – | – | – | – | – | – | – | IC50 (µg/mL), pseudovirus neutralization [9]: 0.015 µg/mL; IC50, pseudovirus neutralization [10]: > 50 µg/mL; neutralization IC50 [12]: > 10 µg/mL; neutralization IC80 [12]: > 10 µg/mL; neutralization IC90 [12]: > 10 µg/mL; neutralization IC95 [12]: > 10 µg/mL; neutralization IC50 [13]: 0.013 µg/mL; neutralization IC80 [13]: 0.039 µg/mL; neutralization IC90 [13]: 0.0741 µg/mL; neutralization IC95 [13]: 0.134 µg/mL; IC50, pseudovirus neutralization [14]: 22.2 µg/mL; IC50, pseudovirus neutralization [15]: 0.016 µg/mL; IC50, pseudovirus neutralization [16]: 11.1 µg/mL; IC50 (µg/mL), pseudovirus neutralization [17]: 0.004 µg/mL
2 | 4877_D15 (PGT-122) (antibody) | 0.3 | 0.689 | 1.46 | > 50 | 0.006 | > 50 | > 50 | > 50 | 0.01 | – | – | – | – | – | – | – | – | – | – | – | IC50 (µg/mL), pseudovirus neutralization [9]: 0.011 µg/mL; IC50, pseudovirus neutralization [10]: > 50 µg/mL; IC50, pseudovirus neutralization [14]: > 50 µg/mL; IC50, pseudovirus neutralization [15]: 0.024 µg/mL; IC50, pseudovirus neutralization [16]: 11.7 µg/mL; IC50 (µg/mL), pseudovirus neutralization [17]: 0.013 µg/mL
3 | 5114_A19 (PGT-128) (antibody) | 0.3 | – | – | – | – | – | – | – | 0.008 | 24.9 | > 50 | 0.008 | 6.6 | 0.009 | 0.008 | > 50 | 0.018 | > 50 | > 50 | 0.021 | Polyclonal Transfectant Neutralization Index [21]: 10
4 | 5123_A06 (PGT-125) (antibody) | 0.6 | 0.042 | 0.0124 | 0.01 | 0.01 | > 50 | 0.361 | > 50 | 0.012 | – | – | – | 133 | – | – | – | – | – | – | – | Polyclonal Transfectant Neutralization Index [21]: 50.6; IC50 (µg/mL), pseudovirus neutralization [9]: 5.47 µg/mL; IC50, pseudovirus neutralization [10]: 0.049 µg/mL; IC50, pseudovirus neutralization [14]: > 50 µg/mL; IC50, pseudovirus neutralization [15]: > 50 µg/mL; IC50, pseudovirus neutralization [16]: 0.015 µg/mL; IC50 (µg/mL), pseudovirus neutralization [17]: 0.009 µg/mL
5 | 5136_H01 (PGT-131) (antibody) | – | – | – | – | – | – | – | – | 0.466 | 2.01 | > 50 | 0.148 | 354 | 0.04 | 0.189 | > 50 | 1.91 | > 50 | > 50 | > 50 | –
6 | 5141_B17 (PGT-126) (antibody) | 0.3 | 0.017 | 0.0091 | 0.324 | 0.022 | 0.052 | > 50 | > 50 | 0.012 | – | – | – | 2.3 | – | – | – | – | – | – | – | Polyclonal Transfectant Neutralization Index [21]: 2.74; IC50 (µg/mL), pseudovirus neutralization [9]: 0.273 µg/mL; IC50, pseudovirus neutralization [10]: > 50 µg/mL; IC50, pseudovirus neutralization [12]: 0.115 µg/mL; IC80 (pseudovirus neutralization) [12]: 1.62 µg/mL; IC90 (pseudovirus neutralization) [12]: 6.91 µg/mL; IC95 (pseudovirus neutralization) [12]: > 10 µg/mL; IC50, pseudovirus neutralization [13]: 0.0163 µg/mL; IC80 (pseudovirus neutralization) [13]: 0.0457 µg/mL; IC90 (pseudovirus neutralization) [13]: 0.0846 µg/mL; IC95 (pseudovirus neutralization) [13]: 0.152 µg/mL; IC50, pseudovirus neutralization [14]: 0.3 µg/mL; IC50, pseudovirus neutralization [15]: > 50 µg/mL; IC50, pseudovirus neutralization [16]: 0.047 µg/mL; IC50 (µg/mL), pseudovirus neutralization [17]: 0.015 µg/mL
7 | 5147_N06 (PGT-130) (antibody) | – | – | 0.635 | – | – | – | – | – | 0.074 | 1.21 | > 50 | 0.049 | 538 | 0.01 | 0.052 | 2.43 | 0.257 | > 50 | > 50 | 9.46 | Polyclonal Transfectant Neutralization Index [21]: 4.2
8 | 5329_C19 (PGT-136) (antibody) | 0.3 | – | > 10 | – | – | – | – | – | > 50 | > 50 | > 50 | > 50 | – | > 50 | > 50 | > 50 | 0.073 | > 50 | > 50 | > 50 | –
9 | 5343_B08 (PGT-135) (antibody) | 0.1 | – | > 10 | – | – | – | – | – | > 50 | > 50 | > 50 | 0.039 | – | > 50 | 0.716 | > 50 | 0.03 | > 50 | > 50 | > 50 | –
10 | 5345_I01 (PGT-137) (antibody) | 0.2 | – | – | – | – | – | – | – | > 50 | > 50 | > 50 | 15.1 | – | > 50 | > 50 | > 50 | 9.35 | > 50 | > 50 | > 50 | –
